What was measured:
[1] = tested on: LNCaP, Du145, and PC3M cell lines; experiment: Wound-healing (scratch) assay; type: cell-based, human; settings: 24 hr, compared with the control
Method: Wound-healing Assay. A wound-healing assay, the scratch assay, was performed according to the protocol published in Liang, et al. (2007), Nat. Protoc. 2, 329-333. Briefly, in this scratch assay 60-mm dishes were coated with ECM and incubated overnight, unbound ECM was removed and the dishes were blocked with bovine serum albumin. Subconfluent growing cells were resuspended in a tissue culture dish by washing cells with PBS, adding versene containing trypsin, and mixing cells with medium containing serum. Cells were then plated onto the prepared 60-mm dish to create a confluent monolayer, and incubated for 6 hr at 37° C.
The cell lines LNCaP (null galectin-3), DU145 (stable clone with reduced galectin-3 expression), and PC3M were used to examine the effect of full-length galectin-3, galectin-3 1-107, and galectin-3 108-250 on prostate cancer cell motility using the scratch assay. The assay was performed with LNCaP, Du145, and PC3M cultured cell lines stimulated by full-length galectin-3, and fragments galectin-3 1-107 and 108-250. A uniform wound was made in each plate using a 1-μl pipette tip. The wound area was observed immediately, then at 24 hr after creation the cells were counted. Cells were grown under identical conditions.

[2] = tested on: co-cultured BAMEC and LNCaP cells; experiment: Three-dimensional growth and tube formation assay, BAMEC/LNCaP co-culture on […]; type: cell-based, bovine, human
Method: Three-dimensional Growth and Tube Formation Assay. To analyze in vitro angiogenesis and interactions between epithelial and endothelial cell formation of tubular networks by co-cultured BAMEC and LNCaP cells, a three-dimensional growth and tube formation assay was performed. Briefly, […]® (10 μl) was added to each chamber of the slide (μ-Slide, ibidi, Martinsried, Germany) and gelled by a 30-min incubation at room temperature, after which 15,000 BAMEC and 5000 LNCaP cells were plated onto the gel in 50 μl of Eagle's minimal essential complete medium. In some chambers, full-length galectin-3 or its fragments were added. After 36 hr, three-dimensional structures were observed under phase contrast microscope and photographed. Images were acquired with an Olympus IX71 microscope supporting a Hamamatsu ORCA-ER video camera. Tube formation image analysis was done using the web-based Image Analysis Win-Tube module of Wimasis online software.
Three-dimensional heterotypic co-cultures of epithelial (LNCaP) and endothelial (BAMEC) cells were performed on […]® to study tube formation in the presence of 10 μg/ml galectin-3 and its fragments. […] FIG. 2B presents a quantitative evaluation of the tube formation assay.

B1: galectin-3 1-107: recombinant fragment 1-107 of human galectin-3 (SEQ ID NO:2), NH2-terminal domain with collagen-like sequence (protein, listed as Homo sapiens)
chain: MADNFSLHDALSGSGNPNPQGWPGAWGNQPAGAGGYPGASYPGAYPGQAPPGAYPGQAPPGAYPGAPGAYPGAPAPGVYPGPPSGPGAYPSSGQPSATGAYPATGPY
- prostate cancer cell motility [1]: did not show a significant increase in motility
- tube formation: loops ([2]; 10 μg/ml protein added to medium, 36 hr, control 0): 0
- branching morphogenesis of endothelial cells ([2]; 10 μg/ml protein, BAMEC/LNCaP co-culture): failed to do so

— patent US20150377889A1, “GALECTIN-3 AS A MARKER FOR PROSTATE CANCER” (Wayne State University, priority 2013, published 2015)
